Reference: publication doi:10.1101/710897v1

Tested on: O=c1[nH]c(=O)c2[nH]cnc2[nH]1
Test: cells, lysate or membranes
Conditions: labelled compound, H+ symport, MM pH 6.8, 37 °C

Row | Substance | Km [µM]
1 | UapA (Aspergillus nidulans FGSC A4) | 5 ± 2
2 | UapA (Aspergillus nidulans FGSC A4; K73A/R133A) | 3.6
